# Tested on: Escherichia coli TOP10
# Assay: shrunken log2 fold change of peptide-encoding DNA abundance (4.5 h post-induction vs induction); higher = less antimicrobial activity (less host growth inhibition)
# Conditions: time post-induction: 4.5 h; library: site-saturation at positions 5, 18, 19, 20
# 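Note: peptides expressed intracellularly from a pBAD plasmid library in pooled LB shake-flask culture, induced with 0.3% L-arabinose, DNA abundance read by NGS, three biological replicates, DESeq2 with apeglm shrinkage.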
row,Sequence,shrunken log2 fold change
1,RRIRFRPPRLPRPRPRPQFMPRP,-1.06
2,RRIRVRPPRLPRPRPRPSIMPRP,-0.451
3,RRIRARPPRLPRPRPRPDCYPRP,0.283
4,RRIRKRPPRLPRPRPRPVSAPRP,0.887
5,RRIRNRPPRLPRPRPRPRQSPRP,0.112
6,RRIRYRPPRLPRPRPRPGWSPRP,-0.135
7,RRIRARPPRLPRPRPRPRSGPRP,0.537
8,RRIRGRPPRLPRPRPRPVIHPRP,0.0507
9,RRIRKRPPRLPRPRPRPQVSPRP,-0.0595
10,RRIRWRPPRLPRPRPRPHLDPRP,-0.0108
11,RRIRLRPPRLPRPRPRPPSDPRP,0.432
12,RRIRCRPPRLPRPRPRPNIGPRP,-0.138
13,RRIRGRPPRLPRPRPRPMDYPRP,0.0324
14,RRIRWRPPRLPRPRPRPLELPRP,0.106
15,RRIRTRPPRLPRPRPRPQVHPRP,-0.221
16,RRIRGRPPRLPRPRPRPRKGPRP,0.148
17,RRIRFRPPRLPRPRPRPWLSPRP,-0.129
18,RRIRYRPPRLPRPRPRPQNDPRP,-1.63
19,RRIRERPPRLPRPRPRPHMLPRP,-0.376
20,RRIRPRPPRLPRPRPRPWDVPRP,0.308
21,RRIRGRPPRLPRPRPRPIGMPRP,0.244
22,RRIRVRPPRLPRPRPRPTKCPRP,-0.458
23,RRIRARPPRLPRPRPRPSVQPRP,0.629
24,RRIRWRPPRLPRPRPRPMCGPRP,0.205
25,RRIRERPPRLPRPRPRPQYKPRP,-0.675

row,Sequence,shrunken log2 fold change
1,RRIRFRPPRLPRPRPRPPRGPRP,0.685
2,RRIRSRPPRLPRPRPRPMWGPRP,-0.0451
3,RRIRQRPPRLPRPRPRPRKSPRP,-0.172
4,RRIRLRPPRLPRPRPRPLTAPRP,-0.0325
5,RRIRNRPPRLPRPRPRPERFPRP,0.128
6,RRIRRRPPRLPRPRPRPCILPRP,-0.208
7,RRIRQRPPRLPRPRPRPTHWPRP,0.427
8,RRIRHRPPRLPRPRPRPYFDPRP,-0.422
9,RRIRNRPPRLPRPRPRPHNCPRP,-0.0167
10,RRIRYRPPRLPRPRPRPNMVPRP,-0.0169
11,RRIRNRPPRLPRPRPRPCYSPRP,-0.596
12,RRIRYRPPRLPRPRPRPNYTPRP,-0.562
13,RRIRWRPPRLPRPRPRPLATPRP,0.766
14,RRIRKRPPRLPRPRPRPGNSPRP,-0.0266
15,RRIRFRPPRLPRPRPRPLGFPRP,-0.146
16,RRIRFRPPRLPRPRPRPEEWPRP,-0.0208
17,RRIRHRPPRLPRPRPRPLKVPRP,0.0138
18,RRIRNRPPRLPRPRPRPCIKPRP,-0.207
19,RRIRSRPPRLPRPRPRPAPTPRP,0.732
20,RRIRVRPPRLPRPRPRPWCGPRP,0.0506
21,RRIRVRPPRLPRPRPRPMYSPRP,-0.242
22,RRIRHRPPRLPRPRPRPLSFPRP,-0.137
23,RRIRGRPPRLPRPRPRPPTKPRP,0.968
24,RRIRNRPPRLPRPRPRPPGDPRP,0.127
25,RRIRERPPRLPRPRPRPSPTPRP,0.0865

row,Sequence,shrunken log2 fold change
1,RRIRRRPPRLPRPRPRPVCIPRP,0.0361
2,RRIRWRPPRLPRPRPRPVEFPRP,-0.177
3,RRIRYRPPRLPRPRPRPYLCPRP,-1.35
4,RRIRDRPPRLPRPRPRPRMQPRP,-0.196
5,RRIRFRPPRLPRPRPRPYPFPRP,-0.69
6,RRIRLRPPRLPRPRPRPISHPRP,-0.137
7,RRIRFRPPRLPRPRPRPCYAPRP,-0.618
8,RRIRQRPPRLPRPRPRPWRPPRP,0.143
9,RRIRHRPPRLPRPRPRPSLRPRP,-0.244
10,RRIRRRPPRLPRPRPRPMGIPRP,0.0313
11,RRIRNRPPRLPRPRPRPIRRPRP,-0.163
12,RRIRFRPPRLPRPRPRPQIDPRP,0.0185
13,RRIRNRPPRLPRPRPRPLFHPRP,-0.595
14,RRIRSRPPRLPRPRPRPAHAPRP,0.121
15,RRIRCRPPRLPRPRPRPMYEPRP,-0.264
16,RRIRQRPPRLPRPRPRPVNAPRP,0.00432
17,RRIRQRPPRLPRPRPRPPNYPRP,0.195
18,RRIRCRPPRLPRPRPRPGKWPRP,0.107
19,RRIRSRPPRLPRPRPRPLPDPRP,0.266
20,RRIRVRPPRLPRPRPRPDDRPRP,-0.0538
21,RRIRNRPPRLPRPRPRPPFAPRP,0.201
22,RRIRFRPPRLPRPRPRPSDAPRP,-0.00375
23,RRIRLRPPRLPRPRPRPKIDPRP,-0.042
24,RRIRTRPPRLPRPRPRPGYFPRP,-0.0719
25,RRIRQRPPRLPRPRPRPMAQPRP,0.006

row,Sequence,shrunken log2 fold change
1,RRIRLRPPRLPRPRPRPQRAPRP,0.309
2,RRIRRRPPRLPRPRPRPRLEPRP,0.508
3,RRIRRRPPRLPRPRPRPGILPRP,-0.174
4,RRIRHRPPRLPRPRPRPCFEPRP,-0.114
5,RRIRARPPRLPRPRPRPKTDPRP,0.876
6,RRIRSRPPRLPRPRPRPPDWPRP,0.661
7,RRIRWRPPRLPRPRPRPSWLPRP,-0.167
8,RRIRARPPRLPRPRPRPRMTPRP,1.04
9,RRIRWRPPRLPRPRPRPKKWPRP,0.254
10,RRIRERPPRLPRPRPRPEMKPRP,0.425
11,RRIRARPPRLPRPRPRPLDGPRP,0.425
12,RRIRTRPPRLPRPRPRPDERPRP,-0.146
13,RRIRHRPPRLPRPRPRPQTRPRP,-0.148
14,RRIRQRPPRLPRPRPRPFTAPRP,-0.183
15,RRIRDRPPRLPRPRPRPAMGPRP,0.399
16,RRIRLRPPRLPRPRPRPLPLPRP,0.338
17,RRIRERPPRLPRPRPRPFTPPRP,0.116
18,RRIRARPPRLPRPRPRPTTSPRP,0.292
19,RRIRRRPPRLPRPRPRPGGRPRP,0.295
20,RRIRSRPPRLPRPRPRPLGQPRP,-0.0571
21,RRIRKRPPRLPRPRPRPKERPRP,-0.0188
22,RRIRERPPRLPRPRPRPHCKPRP,-1.07
23,RRIRFRPPRLPRPRPRPQPQPRP,0.301
24,RRIRVRPPRLPRPRPRPLKQPRP,-0.0521
25,RRIRIRPPRLPRPRPRPNYQPRP,-0.43

row,Sequence,shrunken log2 fold change
1,RRIRMRPPRLPRPRPRPYMHPRP,-0.0641
2,RRIRNRPPRLPRPRPRPRWEPRP,0.291
3,RRIRNRPPRLPRPRPRPDGDPRP,-0.194
4,RRIRYRPPRLPRPRPRPYNFPRP,-0.246
5,RRIRPRPPRLPRPRPRPYIWPRP,-0.267
6,RRIRQRPPRLPRPRPRPGLMPRP,-0.0533
7,RRIRDRPPRLPRPRPRPLPGPRP,0.312
8,RRIRCRPPRLPRPRPRPAFQPRP,0.0486
9,RRIRWRPPRLPRPRPRPNYMPRP,-0.385
10,RRIRYRPPRLPRPRPRPHLAPRP,0.13
11,RRIRPRPPRLPRPRPRPPPTPRP,0.761
12,RRIRSRPPRLPRPRPRPCAQPRP,0.00151
13,RRIRERPPRLPRPRPRPMEMPRP,0.0606
14,RRIRMRPPRLPRPRPRPGSDPRP,1.4
15,RRIRLRPPRLPRPRPRPLPCPRP,0.142
16,RRIRARPPRLPRPRPRPWWIPRP,-0.0901
17,RRIRQRPPRLPRPRPRPHYLPRP,-0.0046
18,RRIRPRPPRLPRPRPRPACDPRP,0.00904
19,RRIRTRPPRLPRPRPRPCYDPRP,-0.127
20,RRIRKRPPRLPRPRPRPEMFPRP,0.0732
21,RRIRNRPPRLPRPRPRPDTWPRP,-0.213
22,RRIRDRPPRLPRPRPRPALKPRP,0.407
23,RRIRIRPPRLPRPRPRPDGRPRP,-0.13
24,RRIRARPPRLPRPRPRPHCRPRP,-0.0687
25,RRIRIRPPRLPRPRPRPAGRPRP,0.132

row,Sequence,shrunken log2 fold change
1,RRIRWRPPRLPRPRPRPTTNPRP,0.217
2,RRIRYRPPRLPRPRPRPCKHPRP,-0.0625
3,RRIRARPPRLPRPRPRPNVQPRP,0.109
4,RRIRVRPPRLPRPRPRPDTSPRP,-0.124
5,RRIRARPPRLPRPRPRPFGAPRP,0.929
6,RRIRNRPPRLPRPRPRPNEIPRP,0.145
7,RRIRERPPRLPRPRPRPHQSPRP,-0.0234
8,RRIRTRPPRLPRPRPRPIYCPRP,-0.233
9,RRIRMRPPRLPRPRPRPRLEPRP,0.113
10,RRIRKRPPRLPRPRPRPKYTPRP,-0.113
11,RRIRWRPPRLPRPRPRPNWWPRP,0.182
12,RRIRNRPPRLPRPRPRPMSCPRP,-0.0294
13,RRIRGRPPRLPRPRPRPIWDPRP,0.474
14,RRIRHRPPRLPRPRPRPDVMPRP,-0.374
15,RRIRKRPPRLPRPRPRPFKKPRP,0.00557
16,RRIRKRPPRLPRPRPRPHSTPRP,-0.0637
17,RRIRHRPPRLPRPRPRPRTWPRP,0.207
18,RRIRHRPPRLPRPRPRPKWRPRP,0.328
19,RRIRMRPPRLPRPRPRPCHTPRP,0.0555
20,RRIRYRPPRLPRPRPRPQMIPRP,0.0722
21,RRIRNRPPRLPRPRPRPCTEPRP,-0.347
22,RRIRARPPRLPRPRPRPHCFPRP,0.36
23,RRIRHRPPRLPRPRPRPMHPPRP,-0.193
24,RRIRVRPPRLPRPRPRPPLSPRP,0.106
25,RRIRFRPPRLPRPRPRPEVRPRP,0.14

# — the supplement of paper PMC9112550, “Optimization of the antimicrobial peptide Bac7 by deep mutational scanning” (BMC Biology, 2022)
